This is an account of results in patent publication US20220073565A1 (University of Washington, published 2022).

No end group written: not given here.

The target of assay [1] is dCas9-VP64-RFP-degronSwitcha. Put plainly: cell-based or functional assay.
In another assay the target is T1, YFP-degronSwitcha.
T1 sequence: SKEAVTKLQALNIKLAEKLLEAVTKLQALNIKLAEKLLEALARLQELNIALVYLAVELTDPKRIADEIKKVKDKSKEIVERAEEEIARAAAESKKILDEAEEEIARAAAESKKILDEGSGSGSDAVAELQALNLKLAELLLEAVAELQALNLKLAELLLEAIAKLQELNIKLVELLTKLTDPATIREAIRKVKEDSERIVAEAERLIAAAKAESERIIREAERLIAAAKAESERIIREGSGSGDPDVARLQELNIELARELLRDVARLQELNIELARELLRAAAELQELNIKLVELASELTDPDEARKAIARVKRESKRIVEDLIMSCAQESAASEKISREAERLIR
Put plainly: cell-based or functional assay.

The next assay has as its target SynTF-RFP-degronSwitcha. Put plainly: cell-based or functional assay.
For assay [2], the target named is T2, Bcl2 (UniProt P10415 1-207, limits assumed, biotinylated).
T2 construct: Loaded on streptavidin biosensors; also called biotinylated Bcl2
T2 sequence (P10415 1-207 limits assumed): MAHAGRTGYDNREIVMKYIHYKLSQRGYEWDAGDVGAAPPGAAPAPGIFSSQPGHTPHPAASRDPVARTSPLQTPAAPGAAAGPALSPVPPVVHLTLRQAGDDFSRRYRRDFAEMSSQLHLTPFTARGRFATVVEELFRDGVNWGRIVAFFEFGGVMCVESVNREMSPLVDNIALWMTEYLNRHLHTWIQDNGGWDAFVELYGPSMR
Put plainly: bio-layer interferometry (Octet), Bcl2 immobilised, switch with nine residue toehold. Background: BLI is a label-free optical method that tracks binding on a fibre tip over time.

Assay [3] deals with T2, Bcl2. Put plainly: bio-layer interferometry, Bcl2 immobilised, 250 nM BimLOCKR with and without key. The protocol: The range of key concentrations over which BimLOCKR is activated can be controlled by tuning KCK by varying the length of the key since the interaction energy is roughly proportional to the total surface area of interacting residues. […] Truncating an additional five residues completely negates key activation, indicating the equilibria are very sensitive to small changes in free energy as expected from our model (FIG. 2d). […] Bio-layer interferometry experiments were performed with target immobilized assayed against the switch with or without key in solution, as well as with key immobilized and assayed against the switch alone or with target in solution. […] This fit has an RMSE (root-mean-square-error) of 0.072 nm to the observed BLI data.
BLI measurements were made on an Octet® RED96 System (ForteBio) with streptavidin (SA) coated biosensors and all analysis was performed within ForteBio Data Analysis Software version 9.0.0.10. Assays were performed with protein diluted into HBS-EP+ Buffer from GE (10 mM HEPES, 150 mM NaCl, 3 mM EDTA, 0.05% v/v Surfactant P20, 0.5% non-fat dry milk, pH7.4 at room temperature). Biotinylated Bcl2 was loaded onto the SA tips to a threshold of 0.5 nm programmed into the machine's protocol.

A further assay has as its target T3, BclB (UniProt Q9HD36 11-178, limits assumed).
T3 construct: also called Bcl2 homolog BclB
T3 sequence (looked up): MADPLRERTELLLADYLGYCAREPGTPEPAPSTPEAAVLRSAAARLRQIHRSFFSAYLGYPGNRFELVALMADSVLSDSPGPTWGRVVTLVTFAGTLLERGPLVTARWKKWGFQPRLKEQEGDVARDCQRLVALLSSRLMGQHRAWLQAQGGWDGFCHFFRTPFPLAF
Put plainly: global fit of the thermodynamic model to bio-layer interferometry data (target or key immobilised).

For assay [4], the target named is T2, Bcl2. The assay is described as above.
In a further assay the target is T4, mSin3A-PAH2 domain (UniProt Q60520 300-383, biotin).
T4 construct: domain: PAH2; 0.1 µg immobilised on streptavidin biosensor tips; also called Biotin-mSin3A-PAH2; PAH2 domain of the mSin3A transcriptional repressor
T4 sequence (looked up): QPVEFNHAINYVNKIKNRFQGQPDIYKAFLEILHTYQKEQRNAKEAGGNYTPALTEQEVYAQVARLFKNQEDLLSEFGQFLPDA
Put plainly: bio-layer interferometry, Biotin-mSin3A-PAH2 on streptavidin tips. The source says: FIG. 12a-d: Designed Mad1-SID LOCKR switches for key-dependent transcriptional repression. FIG. 12a. Crystal structure of the interaction between Mad1-SID domain (white) and the PAH2 domain of the mSin3A transcriptional repressor (black) (PDB ID: 1E91). Caging of the Mad1-SID domain should enable key-dependent recruitment of the transcriptional repressor mSin3A enabling precise epigenetic regulation. FIG. 12b. Designed Mad1-LOCKR switches, with Cage component encoding the Mad1-SID sequence at different positions (dark gray). FIG. 12c. SDS-PAGE gel showing successfully purified 1fix302Mad1 (1) , 1fix_309_Mad1 (2) and MBP_Mad1 (3). FIG. 12d. Biolayer interferometry analysis of key-activated binding of the Mad1-LOCKR switches to the purified rnSin3A-PAH2 domain. MBP-Mad1 is a positive control for mSin3a-PAH2 binding. […] Kinetic assays were performed by immobilizing 0.1μg of Biotin-mSin3A-PAH2 protein on Streptavidin biosensor tips (ForteBio). Protein cages were tested at 50 nM in presence or absence of 500 nM Keyₐ.

B1: Keya-BFP (designed binder, not shown: large carriers)
chain: EARKAIARVKRESKRIVEDAERLIREAAAASEKISREAERLIREAAAASEKISRE
modifications: also: C-terminal fusion to BFP (mTagBFP2), linker not given here
B1: in assay [1], the reduction of RFP fluorescence upon induction of Key at 31.25 nM E2 was determined as 78% and the reduction of pTet7x-YFP reporter fluorescence upon induction of Key at 31.25 nM E2 was found to be 41%. Moreover, in the assay with YFP-degronSwitcha, the reduction of YFP fluorescence (flow cytometry, S. cerevisiae) is under 73%.

B2: Keya-BFP-NLS (designed binder, not shown: large carriers)
chain: B1 chain
B2: in the assay with SynTF-RFP-degronSwitcha, the reduction of RFP fluorescence at 31.25 nM E2, maximal Key induction worked out at 61% and the reduction of pSynTF-YFP reporter fluorescence at 31.25 nM E2, maximal Key induction was 82%.

B3: BimLOCKRc (nine residue toehold on the latch) (designed binder)
chain: MGSSHHHHHHSSGLVPRGSHMSLEAVLKLAELNLKLSDKLAEAVQKLAALLNKLLEKLSEALQRLFELNVALVTLAIELTDPKRIADEIKKVKDKSKEIVERAEEEIARAAAESKKILDEAEEEIARAAAESKKILDEGSGSGSDAVAELQALNLKLAELLLEAVAELQALNLKLAELLLEAIAKLQELNIKLVELLTKLTDPATIREAIRKVKEDSERIVAEAERLIAAAKAESERIIREAERLIAAAKAESERIIREGSGSNDPLVARLQELLIEHARELLRLVATSQEIFIELARAFLANAAQLQEAAIKAVEAASENGSGEIWIAQELRRIGDEFNAYYAQNQKLLKDHKRAQEKLNRELEELKKKHKK
notes: Entry is printed with full latch and optional His tag; tested with a nine residue toehold (latch truncated by nine residues)
Turning to B3, in the assay with Bcl2 [2], the “fold activation of binding by the cognate key (with key against without key)” value worked out at 8 fold.

B4: BimLOCKR (18-residue extension with a 9 residue toehold) (designed binder)
chain: MGSSHHHHHHSSGLVPRGSHMSKEAVTKLQALNIKLAEKLLEAVTKLQALNIKLAEKLLEALARLQELNIALVYLAVELTDPKRIADEIKKVKDKSKEIVERAEEEIARAAAESKKILDEAEEEIARAAAESKKILDEGSGSGSDAVAELQALNLKLAELLLEAVAELQALNLKLAELLLEAIAKLQELNIKLVELLTKLTDPATIREAIRKVKEDSERIVAEAERLIAAAKAESERIIREAERLIAAAKAESERIIREGSGSGDPDVARLQELNIELARELLRDVARLQELNIELARELLRAAAELQELNIKLVELASELTDEIWIAQELRRIGDEFNAYYADAERLIREAAAASEKISREAERLIREAA
notes: the tested form has the latch truncated by nine residues at the C-terminus (toehold); also called BimLOCKRa
The Kd is the concentration at which binding is half-saturated. In the case of B4, the “fold activation of binding by the key (with key against without key)” value with Bcl2 [3] was about 40 fold. Further, the Kd with BclB was determined as 32 nM; with Bcl2 [4], 28 nM.

B5: BimLOCKRb (nine residue toehold on the latch) (designed binder)
chain: MGSSHHHHHHSSGLVPRGSHMSHAAVIKLSDLNIRLLDKLLQAVIKLTELNAELNRKLIEALQRLFDLNVALVHLAAELTDPKRIADEIKKVKDKSKEIVERAEEEIARAAAESKKILDEAEEEIARAAAESKKILDEGSGSGSDAVAELQALNLKLAELLLEAVAELQALNLKLAELLLEAIAKLQELNIKLVELLTKLTDPATIREAIRKVKEDSERIVAEAERLIAAAKAESERIIREAERLIAAAKAESERIIREGSGSNDPQVAQNQETFIELARDALRLVAENQEAFIEVARLTLRAAALAQEVAIKAVEAASEGGSGSGNEIWIAQELRRIGDEFNAYYAEHKEIHDKLRKKNKKAREDLKKKADE
notes: as for B3
On to B5, for which the “fold activation of binding by the cognate key (with key against without key)” value with Bcl2 [2] turned out to be 22 fold.

B6: 1fix_302_Mad1 (designed binder)
chain: MGSHHHHHHGSGSENLYFQGSKEAAKKLQDLNIELARKLLEASTKLQRLNIRLAEALLEAIARLQELNLELVYLAVELTDPKRIRDEIKEVKDKSKEIIRRAEKEIDDAAKESKKILEEARKAIRDAAEESRKILEEGSGSGSDALDELQKLNLELAKLLLKAIAETQDLNLRAAKAFLEAAAKLQELNIRAVELLVKLTDPATIRRALEHAKRRSKEIIDEAERAIRAAKRESERIIEEARRLIEKAKEESERIIREGSGSGDPDIKKLQDLNIELARELLRAHAQLQRLNLELLRELLRALAQLQELNLDLLRLASELTNIQMLLEAADYLERESKRIVEDAERLIREAAAASEKISREAERSIREAAAASEKISRE
notes: Optional His-TEV tag printed in parentheses
Take B6: in the assay with mSin3A-PAH2 domain, the binding result is given as “no binding”.
